Measurements taken from patent US20070258992A1.

Biological target: mouse synaptosomes
Experiment: inhibition of active BoNT/A binding to synaptosomes

With “inactive BoNT/A (formaldehyde-inactivated toxoid) (from UniProt P0DPI0 2-1296)” the maximum inhibition was 98%.
